Conditions in all cases: Homo sapiens
Compound in data set [1]: CCCCCCCCCCCCCCCc1cccc(O)c1C(=O)O
Kind of data set: Uncompetitive inhibition of recombinant N-terminal His6-tagged KAT8 (unknown origin) expressed in Escherichia Coli BL21 DE3 cells assessed as Km for acetyl coenzyme A at 160 uM.

Compound in data set [2]: CCCCCCCCCCCCCCCc1cccc(O)c1C(=O)O
Kind of data set: Uncompetitive inhibition of recombinant N-terminal His6-tagged KAT8 (unknown origin) expressed in Escherichia Coli BL21 DE3 cells assessed as Km for acetyl coenzyme A at 240 uM.

Compound in data set [3]: CCCCCCCCCCCCCCCc1cccc(O)c1C(=O)O
As to the kind of experiment: Uncompetitive inhibition of recombinant N-terminal His6-tagged KAT8 (unknown origin) expressed in Escherichia Coli BL21 DE3 cells assessed as Vmax for acetyl coenzyme A at 240 uM.

Compound in data set [4]: CCCCCCCCCCCCCCCc1cccc(O)c1C(=O)O
As to the kind of experiment: Inhibition of recombinant N-terminal His6-tagged KAT8 (unknown origin) expressed in Escherichia Coli BL21 DE3 cells assessed as Vmax for histone H4 peptide at 160 uM.

Compound in data set [5]: CCCCCCCCCCCCCCCc1cccc(O)c1C(=O)O
As to the kind of experiment: Inhibition of recombinant N-terminal His6-tagged KAT8 (unknown origin) expressed in Escherichia Coli BL21 DE3 cells assessed as Vmax for histone H4 peptide at 80 uM.

Compound in data set [6]: CCCCCCCCCCCCCCCc1cccc(O)c1C(=O)O
Kind of data set: Uncompetitive inhibition of recombinant N-terminal His6-tagged KAT8 (unknown origin) expressed in Escherichia Coli BL21 DE3 cells assessed as Vmax for acetyl coenzyme A at 80 uM.

Compound in data set [7]: CCCCCCCCCCCCCCCc1cccc(O)c1C(=O)O
As to the kind of experiment: Uncompetitive inhibition of recombinant N-terminal His6-tagged KAT8 (unknown origin) expressed in Escherichia Coli BL21 DE3 cells assessed as Vmax for acetyl coenzyme A at 160 uM.

Compound in data set [8]: CCCCCCCCCCCCCCCc1cccc(O)c1C(=O)O
Kind of data set: Uncompetitive inhibition of recombinant N-terminal His6-tagged KAT8 (unknown origin) expressed in Escherichia Coli BL21 DE3 cells assessed as Km for acetyl coenzyme A at 80 uM.

Compound in data set [9]: CCCCCCCCCCCCCCCc1cccc(O)c1C(=O)O
Kind of data set: Inhibition of recombinant N-terminal His6-tagged KAT8 (unknown origin) expressed in Escherichia Coli BL21 DE3 cells assessed as Vmax for histone H4 peptide at 240 uM.

B1: Histone acetyltransferase KAT8 (Homo sapiens), Q9H7Z6 (protein)
chain: MAAQGAAAAVAAGTSGVAGEGEPGPGENAAAEGTAPSPGRVSPPTPARGEPEVTVEIGETYLCRRPDSTWHSAEVIQSRVNDQEGREEFYVHYVGFNRRLDEWVDKNRLALTKTVKDAVQKNSEKYLSELAEQPERKITRNQKRKHDEINHVQKTYAEMDPTTAALEKEHEAITKVKYVDKIHIGNYEIDAWYFSPFPEDYGKQPKLWLCEYCLKYMKYEKSYRFHLGQCQWRQPPGKEIYRKSNISVYEVDGKDHKIYCQNLCLLAKLFLDHKTLYFDVEPFVFYILTEVDRQGAHIVGYFSKEKESPDGNNVACILTLPPYQRRGYGKFLIAFSYELSKLESTVGSPEKPLSDLGKLSYRSYWSWVLLEILRDFRGTLSIKDLSQMTSITQNDIISTLQSLNMVKYWKGQHVICVTPKLVEEHLKSAQYKKPPITVDSVCLKWAPPKHKQVKLSKK
The Km is the concentration of substrate that gives half-maximal velocity. Usually Vmax stands for the rate approached at saturating substrate. Turning to B1, the Km in data set [1] was 1.9 µM; in [2], 1 µM; in [8], 2.4 µM. Moreover, the Vmax in data set [3] turned out to be 6.1 pmol/min; in data set [4], 12 pmol/min; in data set [5], 12 pmol/min; in data set [6] it was 12 pmol/min; in data set [7], 9.2 pmol/min; in data set [9], 12 pmol/min.

Source of the values: ChEMBL document CHEMBL3734689, “Enzyme kinetics and inhibition of histone acetyltransferase KAT8” (Eur J Med Chem, 2015).
